Test results reported in patent US20110008369A1.

Molecular target: human PD-1 (Programmed Cell Death 1), expressed on cells (human) (UniProt Q15116)
Experiment: cell binding; 0.2 ug/ml IgG on activated human CD4+ cells, 37 C

Sequence of human PD-1 (Programmed Cell Death 1), expressed on cells (human) (Q15116 25-288 limits assumed): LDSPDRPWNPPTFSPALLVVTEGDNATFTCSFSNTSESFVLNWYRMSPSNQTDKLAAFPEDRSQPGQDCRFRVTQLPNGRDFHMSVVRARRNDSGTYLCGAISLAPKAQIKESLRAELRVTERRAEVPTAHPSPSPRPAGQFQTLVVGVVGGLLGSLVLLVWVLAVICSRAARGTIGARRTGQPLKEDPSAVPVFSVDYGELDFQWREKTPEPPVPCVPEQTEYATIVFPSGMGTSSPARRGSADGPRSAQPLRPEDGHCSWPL

B1: mAb 6D10 (antibody, part only; not given: light chain variable domain, V domains shown, part only)
VH: EVKLVESGGGLVQPGGSRKLSCAASGFTFSSFGMHWVRQAPEKGLEWVAYVSSASSVIHYADTVKGRFTISRDNPKNTLFLQMTSLRSEDTAMYYCARSGYYGTWFPYWGQGTLVTVS
MFI: 133 MFI
